System: peptide library, one residue held at a place counted from the S/T acceptor
Assay: relative phosphorylation of the sub-library (ratio to the mean residue at this position); human; higher = residue favoured
In short: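 In 384-well plates, purified recombinant kinases (human or orthologue constructs) were incubated for 90 min under kinase-specific conditions with 50 μM biotinylated degenerate peptide sub-libraries and 50 μM ATP spiked with γ-32P-ATP. Each sub-library fixed a single residue at one position around a central Ser/Thr. Relative sub-library phosphorylation, measured by phosphorimaging and densitometry of streptavidin membrane spots, is given as a ratio to the mean residue at that position.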

TSSK1B, construct: Full length, sequence (Q9BXA7 whole entry, looked up): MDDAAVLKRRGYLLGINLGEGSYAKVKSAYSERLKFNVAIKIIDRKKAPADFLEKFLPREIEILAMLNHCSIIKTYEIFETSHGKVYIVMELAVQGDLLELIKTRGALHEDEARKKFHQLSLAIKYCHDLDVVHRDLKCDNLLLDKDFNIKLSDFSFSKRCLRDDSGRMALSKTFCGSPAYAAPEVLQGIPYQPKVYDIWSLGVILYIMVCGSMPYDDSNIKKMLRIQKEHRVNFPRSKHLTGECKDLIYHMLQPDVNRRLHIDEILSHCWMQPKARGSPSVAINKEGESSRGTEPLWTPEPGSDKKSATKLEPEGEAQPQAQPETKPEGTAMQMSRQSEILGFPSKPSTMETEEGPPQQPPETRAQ

TSSK1B, construct: Full length (from UniProt Q9BXA7)
relative phosphorylation
Conditions | A fixed | D fixed | E fixed | F fixed | G fixed | H fixed | I fixed | K fixed | L fixed | M fixed
at +1 | 0.896 | 0.619 | 0.69 | 1.1 | 0.884 | 1.1 | 0.854 | 1.43 | 1.03 | 1.23
at +2 | 1.04 | 0.465 | 0.497 | 0.97 | 1.4 | 1.99 | 1.56 | 0.385 | 1.53 | 1.21
at +3 | 0.82 | 1.55 | 0.747 | 1.09 | 0.809 | 1.29 | 0.66 | 0.945 | 0.758 | 0.953
at +4 | 0.786 | 0.621 | 0.452 | 1.33 | 0.639 | 0.768 | 2.06 | 0.621 | 2.43 | 1.9
at -1 | 1.15 | 0.453 | 0.506 | 0.617 | 1.08 | 0.957 | 0.502 | 2.08 | 0.683 | –
at -2 | 1.84 | 0.495 | 0.474 | 0.565 | 1.2 | 0.981 | 0.661 | 2.53 | 0.423 | –
at -3 | 0.918 | 0.378 | 0.532 | 0.497 | 1.08 | 1.01 | 0.421 | 2.55 | 0.418 | –
at -4 | 1.21 | 0.625 | 0.883 | 0.643 | 1.29 | 1.23 | 0.677 | 2.11 | 0.73 | –
at -5 | 1.05 | 0.389 | 0.371 | 0.99 | 0.635 | 0.57 | 1.61 | 0.612 | 2.77 | –
